Experimental data from patent US11912789 (INTERK PEPTIDE THERAPEUTICS, dated 2024).
Where two headings read alike, the source gives them in different places. No end group written: not given here. 2Adod = 2-amino-dodecanoic acid; 2Adec = 2-amino-decanoic acid; 12Ado = NCCCCCCCCCCCC(=O)O

Assays:
Assay in all cases: cell-based or functional assay
[1] = target: T1, Lymphocyte-specific protein tyrosine kinase (Lck), enzyme in cell-free kinase assay (human, UniProt P06239 1-509, limits assumed)
[2] = target: T1, Lymphocyte-specific protein tyrosine …; remark: listed apart in the source
[3] = target: T1, Lymphocyte-specific protein tyrosine …; remark: listed apart in the source
cSRC = cSRC (UniProt P12931 1-536, limits assumed)
Fgr = Fgr (UniProt P09769 1-529, limits assumed)
Lyn = Lyn (UniProt P07948 1-512, limits assumed)
Chain of Lyn (P07948 whole entry): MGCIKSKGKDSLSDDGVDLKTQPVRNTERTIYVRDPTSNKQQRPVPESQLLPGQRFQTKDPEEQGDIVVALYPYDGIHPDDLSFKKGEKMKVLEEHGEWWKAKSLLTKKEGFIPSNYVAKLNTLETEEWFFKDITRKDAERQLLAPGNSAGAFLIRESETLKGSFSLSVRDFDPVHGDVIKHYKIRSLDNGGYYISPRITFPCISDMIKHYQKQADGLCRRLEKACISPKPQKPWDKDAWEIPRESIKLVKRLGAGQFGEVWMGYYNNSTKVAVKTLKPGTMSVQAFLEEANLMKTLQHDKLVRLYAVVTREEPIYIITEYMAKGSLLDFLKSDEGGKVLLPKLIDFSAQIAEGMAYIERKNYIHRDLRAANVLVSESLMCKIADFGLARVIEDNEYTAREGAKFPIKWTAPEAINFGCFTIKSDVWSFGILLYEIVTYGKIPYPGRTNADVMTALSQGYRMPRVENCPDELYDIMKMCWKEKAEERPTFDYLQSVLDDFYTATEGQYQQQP

Blk = Blk (UniProt P51451 1-505, limits assumed)
Chain of Blk (P51451 whole entry): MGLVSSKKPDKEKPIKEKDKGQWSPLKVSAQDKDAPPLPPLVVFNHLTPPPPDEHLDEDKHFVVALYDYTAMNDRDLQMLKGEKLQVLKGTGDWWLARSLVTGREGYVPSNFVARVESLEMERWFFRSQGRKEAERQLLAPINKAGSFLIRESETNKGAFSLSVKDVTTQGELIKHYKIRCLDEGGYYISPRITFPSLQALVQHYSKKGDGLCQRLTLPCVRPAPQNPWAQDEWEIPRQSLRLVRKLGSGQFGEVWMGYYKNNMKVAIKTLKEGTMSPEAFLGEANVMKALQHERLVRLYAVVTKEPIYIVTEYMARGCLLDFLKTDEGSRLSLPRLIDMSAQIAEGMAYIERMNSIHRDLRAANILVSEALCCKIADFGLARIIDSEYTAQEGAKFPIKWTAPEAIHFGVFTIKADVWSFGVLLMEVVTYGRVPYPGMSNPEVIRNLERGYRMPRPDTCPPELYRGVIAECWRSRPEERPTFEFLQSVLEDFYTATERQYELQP

Hck = Hck (UniProt P08631 251-518, limits assumed)
Chain of Hck (P08631 251-518 limits assumed): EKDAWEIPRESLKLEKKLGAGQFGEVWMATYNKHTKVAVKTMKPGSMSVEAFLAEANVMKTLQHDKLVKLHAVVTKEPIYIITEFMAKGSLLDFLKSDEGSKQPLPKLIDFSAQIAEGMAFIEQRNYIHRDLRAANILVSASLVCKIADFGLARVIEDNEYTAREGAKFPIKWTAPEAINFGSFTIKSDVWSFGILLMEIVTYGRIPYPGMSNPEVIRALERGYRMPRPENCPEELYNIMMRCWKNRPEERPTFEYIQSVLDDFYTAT

Fyn = Fyn (UniProt P06241 1-537, limits assumed)
Chain of Fyn (P06241 whole entry): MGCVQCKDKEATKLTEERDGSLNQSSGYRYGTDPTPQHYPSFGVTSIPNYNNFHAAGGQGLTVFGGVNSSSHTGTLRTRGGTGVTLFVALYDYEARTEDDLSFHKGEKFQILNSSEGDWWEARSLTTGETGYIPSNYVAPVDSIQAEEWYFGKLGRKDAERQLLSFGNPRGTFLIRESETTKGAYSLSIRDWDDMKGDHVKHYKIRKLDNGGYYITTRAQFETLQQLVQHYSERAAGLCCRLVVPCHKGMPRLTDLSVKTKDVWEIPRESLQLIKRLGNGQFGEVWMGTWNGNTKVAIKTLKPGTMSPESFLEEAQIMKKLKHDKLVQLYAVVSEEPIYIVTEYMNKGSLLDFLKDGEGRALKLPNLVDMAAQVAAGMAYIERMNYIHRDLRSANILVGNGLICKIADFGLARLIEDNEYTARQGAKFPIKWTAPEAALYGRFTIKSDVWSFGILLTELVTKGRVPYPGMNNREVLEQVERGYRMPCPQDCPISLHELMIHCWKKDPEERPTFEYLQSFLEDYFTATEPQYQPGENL

Yes = Yes (UniProt P07947 1-543, limits assumed)
Chain of Yes (P07947 whole entry): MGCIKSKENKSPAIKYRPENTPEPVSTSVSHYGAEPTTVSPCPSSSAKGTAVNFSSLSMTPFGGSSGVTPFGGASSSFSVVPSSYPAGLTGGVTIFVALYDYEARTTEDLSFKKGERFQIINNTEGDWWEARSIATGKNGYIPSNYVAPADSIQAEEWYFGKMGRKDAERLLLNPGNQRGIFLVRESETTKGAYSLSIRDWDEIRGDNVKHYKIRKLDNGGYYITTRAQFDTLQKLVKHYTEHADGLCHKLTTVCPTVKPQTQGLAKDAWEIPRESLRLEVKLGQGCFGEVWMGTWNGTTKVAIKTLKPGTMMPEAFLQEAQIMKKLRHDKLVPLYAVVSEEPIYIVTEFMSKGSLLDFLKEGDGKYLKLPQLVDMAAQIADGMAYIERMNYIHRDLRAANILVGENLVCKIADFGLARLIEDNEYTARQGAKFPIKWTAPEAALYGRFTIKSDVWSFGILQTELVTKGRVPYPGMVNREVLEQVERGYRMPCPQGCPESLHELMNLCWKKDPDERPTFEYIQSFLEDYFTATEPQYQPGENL

[4] = target: T1, Lymphocyte-specific protein tyrosine …; remark: listed apart in the source

T1 sequence (P06239 whole entry): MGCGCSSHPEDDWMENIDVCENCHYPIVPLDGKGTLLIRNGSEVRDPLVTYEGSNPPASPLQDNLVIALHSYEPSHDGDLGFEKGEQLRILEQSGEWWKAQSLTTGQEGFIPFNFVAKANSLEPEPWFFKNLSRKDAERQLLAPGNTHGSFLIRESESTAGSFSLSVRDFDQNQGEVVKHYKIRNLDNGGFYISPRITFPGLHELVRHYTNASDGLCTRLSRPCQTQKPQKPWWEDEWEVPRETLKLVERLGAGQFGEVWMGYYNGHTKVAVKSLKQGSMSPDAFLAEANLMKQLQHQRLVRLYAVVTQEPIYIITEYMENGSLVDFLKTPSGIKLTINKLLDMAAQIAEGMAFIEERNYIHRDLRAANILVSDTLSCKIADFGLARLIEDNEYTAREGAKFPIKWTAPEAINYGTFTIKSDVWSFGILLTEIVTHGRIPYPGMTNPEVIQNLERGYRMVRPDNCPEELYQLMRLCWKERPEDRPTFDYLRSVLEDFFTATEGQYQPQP

Row | Binder | Lck Activation above control, 1 µM [1] [%] | Lck Activation above control, 10 µM [1] [%] | Lck Activation above control, 30 µM [1] [%] | other results
1 | SKAKNPLYR | 0 | 0 | 0 | 
2 | RSKAKNPLYR-{2Adec-2Adec-2Adec-2Adec-NH2} [RSKAKNPLYR-(2-Adec)4-NH2] |  |  |  | Lck Activation above control, 1 µM [2]: 127%
3 | RSKAKNPLYR-{2Adod-2Adod-2Adod-2Adod-OH} [RSKAKNPLYR-(2Adod)4-OH] |  |  |  | level of Lck activation relative to the amidated compound …-(2Adod)4-NH2 [3]: ~50%
4 | RSAAKNPLY | 0 | 0 | 0 | 
5 | RYLPNKAKS | 0 | 0 | 5 | 
6 | RVKVKVVVV | 518 | 501 | 363 | 
7 | KEKLKNPLF | 0 | 0 | 14 | 
8 | RSKAKNPLYR | 0 | 0 | 0 | cSRC activity relative to control, peptide at 10 µM (cSRC): 0%; Fgr activity relative to control, peptide at 10 µM (Fgr): 0%; Lyn activity relative to control, peptide at 10 µM (Lyn): 0%; Blk activity relative to control, peptide at 10 µM (Blk): 0%; Hck activity relative to control, peptide at 10 µM (Hck): 0%; Fyn activity relative to control, peptide at 10 µM (Fyn): 0%; Yes activity relative to control, peptide at 10 µM (Yes): 0%; Lck activity relative to control, peptide at 10 µM [4]: 0%
9 | RSKAANPLY | 0 | 0 | 0 | 
10 | RSRARNPLY | 0 | 0 | 0 | 
11 | ASKAKNPLY | 0 | 0 | 0 | 
12 | DSEAENPLYD-{2Adod-2Adod-2Adod-2Adod-NH2} [DSEAENPLYD-(2Adod)4-NH2] |  |  |  | Lck Activation above control, 1 µM [2]: 0%
13 | RVKVKVVVVR | 13 | 183 |  | 
14 | RSKAKNPLYR-{2Adod-2Adod-2Adod-2Adod-NH2} [RSKAKNPLYR-(2Adod)4-NH2] |  |  |  | Lck Activation above control, 1 µM [2]: 499%
15 | RSKAKNPLY | 0 | 186 | 407 | cSRC activity relative to control, peptide at 10 µM (cSRC): 0%; Fgr activity relative to control, peptide at 10 µM (Fgr): 0%; Lyn activity relative to control, peptide at 10 µM (Lyn): 0%; Blk activity relative to control, peptide at 10 µM (Blk): 0%; Hck activity relative to control, peptide at 10 µM (Hck): 0%; Fyn activity relative to control, peptide at 10 µM (Fyn): 0%; Yes activity relative to control, peptide at 10 µM (Yes): 0%; Lck activity relative to control, peptide at 10 µM [4]: 186%
16 | RSKAKNPLYR-{12Ado-12Ado-12Ado-12Ado-NH2} [RSKAKNPLYR-(12-Adod)4-NH2] |  |  |  | Lck Activation above control, 1 µM [2]: 96%
